{"source": "paper PMC6196983", "about": "“The Native Monomer of Bacillus Pumilus Ribonuclease Does Not Exist Extracellularly” (BioMed Research International, 2018)", "proteins": {"B1": {"name": "binase, secreted guanyl-preferring ribonuclease of Bacillus pumilus (enzyme, UniProt P00649 54-162, looked up)", "chain": "AVINTFDGVADYLIRYKRLPDNYITKSQASALGWVASKGNLAEVAPGKSIGGDVFSNREGRLPSASGRTWREADINYVSGFRNADRLVYSSDWLIYKTTDHYATFTRIR", "notes": "binase, secreted ribonuclease of Bacillus pumilus (formerly Bacillus intermedius); also called B. pumilus secreted RNase; Bacillus intermedius RNase; source: isolated from B. pumilus culture fluid, purified"}}, "target": "the molecule itself", "experiment": "NMR self-diffusion (hydrodynamic radius); 1.5 mg/ml binase in D2O at pH 3.0 and pH 6.4; BPP-LED stimulated echo, 600.13 MHz; radius from the Stokes-Einstein equation compared with the theoretical monomer size of 1.6 nm", "data": [{"protein": "B1", "values": [{"measurement": "stoichiometry N", "value": 2}]}]}
